{"source": "patent US20180148718", "target": "Hsp90alpha (UniProt P07900)", "assay": "FP filter", "details": "5-10-5 gapmer, cEt wings 1-5 and 16-20, 2'-deoxy gap, all C 5mC, full PS; nitrocellulose double-filter binding, printed as binding constant"}
{"sequence": "CTGCTAGCCTCTGGATTTGA [Isis 586183 (PS/cEt)]", "values": [{"measurement": "Kd", "result": 19.7, "unit": "nM"}]}
